Source: US20220348923, “CA-IX APTAMERS AND DIAGNOSTIC AND THERAPEUTIC USES THEREOF” (BRACCO IMAGING S.P.A., published 2022)

Molecular target: Carbonic Anhydrase IX (CA-IX) (Homo sapiens, UniProt Q16790 Q16790:38-414)
Assay: RT-qPCR cell binding, 100 nM, 15 min, 37 C, acid condition

Binder: UUCGUGCCGCUGAGUGCGUACGGGC (ssRNA, 2'-F pyrimidines) [SAM-1.T1]
- binding signal: 1.3 fold over COS7-WT

Binder: UCGAAUGAACCAAGGUUCCUCGGC (ssRNA, 2'-F pyrimidines) [SAM-2.T1]
- binding signal: 2.4 fold over COS7-WT
